Experimental data taken from patent US20260008815A1, “CYCLIC PEPTIDE OR SALT THEREOF, AND USES THEREOF” (FUJIFILM Corporation, priority 2023, published 2026).
Bridge positions count the residues as written; N and C are the ends. Ends that are not written are not given here. COCH2 = acetyl group that carries the bridge

Biological target: T1, Recombinant Human FGFR2 alpha (IIIc) Fc Chimera Protein, CF (R&D systems, 712-FR-050) (human, UniProt P21802 22-377)
T1 construct: bought; not shown: Fc part of the chimera
Assay: ELISA on plate-bound FGFR2-Fc
Method: First, 5 ng of Recombinant Human FGFR2 alpha (IIIc) Fc Chimera Protein (R&D systems, 712-FR-050) was immobilized in each well of a 96-well plate, and blocked with Pierce Protein-Free (PBS) Blocking Buffer (Thermo, 37572), and a peptide diluted with Can Get Signal Immunoreaction Enhancer Solution I (TOYOBO, NKB-101) was then added and reacted at room temperature for 3 hours. After washing with 0.05% Tween 20-containing phosphate buffered saline (PBS), an anti-Myc antibody (Cell Signaling, 14038S) diluted with Can Get Signal Immunoreaction Enhancer Solution II (TOYOBO, NKB-101) was added and reacted at room temperature for 2 hours. After washing with 0.05% Tween 20-containing PBS, SuperSignal ELISA Femto Substrate (Thermo, 37075) was added, and the luminescence amount was measured. The dose-response relationship was calculated from using the difference between the luminescence amount in the well in which FGFR was immobilized and the luminescence amount in the well in which FGFR was not immobilized, and the concentration of the peptide at the time of reaction, and the binding affinity to FGFR was evaluated according to the following evaluation criteria. The evaluation result preferably satisfies the evaluation criteria A, B, or C.

T1 sequence (P21802 22-377, change not shown): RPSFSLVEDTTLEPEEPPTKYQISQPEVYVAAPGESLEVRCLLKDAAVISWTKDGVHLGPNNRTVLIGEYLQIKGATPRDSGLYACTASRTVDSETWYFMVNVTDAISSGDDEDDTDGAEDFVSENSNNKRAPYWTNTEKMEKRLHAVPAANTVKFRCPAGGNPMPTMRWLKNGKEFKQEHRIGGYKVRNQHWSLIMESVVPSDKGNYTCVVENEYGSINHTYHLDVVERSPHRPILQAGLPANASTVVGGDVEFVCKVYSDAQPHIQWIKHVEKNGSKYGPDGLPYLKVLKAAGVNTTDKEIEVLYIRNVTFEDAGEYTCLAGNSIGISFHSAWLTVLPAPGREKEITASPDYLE

Row | ELISA luminescence signal at 10 nmol/L peptide, relative to SEQ ID NO: 47 (=1) [ratio] | Binder
1 | ≥ 0.7 | YCEENYLTPEQYQYFIYFK(COCH2)Y (thioether 2-19 (inferred)) [cyclic peptide SEQ ID NO: 217]
2 | ≥ 0.7 | YCEENYLDPQQYQYFIYFK(COCH2)Y (thioether 2-19 (inferred)) [cyclic peptide SEQ ID NO: 245]
3 | ≥ 0.7 | YCEENYLDYEQYQYFIYFK(COCH2)Y (thioether 2-19 (inferred)) [cyclic peptide SEQ ID NO: 226]
4 | 0.1 to 0.5 | YCEENYLDPEQLQYFIYFK(COCH2)Y (thioether 2-19 (inferred)) [cyclic peptide SEQ ID NO: 252]
5 | ≥ 0.7 | YCEENYLDTEQYQYFIYFK(COCH2)Y (thioether 2-19 (inferred)) [cyclic peptide SEQ ID NO: 231]
6 | ≥ 0.7 | YCEENYLDIEQYQYFIYFK(COCH2)Y (thioether 2-19 (inferred)) [cyclic peptide SEQ ID NO: 223]
7 | ≥ 0.7 | YCEENYLDPFQYQYFIYFK(COCH2)Y (thioether 2-19 (inferred)) [cyclic peptide SEQ ID NO: 241]
8 | ≥ 0.7 | YCEENYLDPDQYQYFIYFK(COCH2)Y (thioether 2-19 (inferred)) [cyclic peptide SEQ ID NO: 248]
9 | ≥ 0.7 | YCEENYLDGEQYQYFIYFK(COCH2)Y (thioether 2-19 (inferred)) [cyclic peptide SEQ ID NO: 221]
10 | ≥ 0.7 | YCEENYLDPPQYQYFIYFK(COCH2)Y (thioether 2-19 (inferred)) [cyclic peptide SEQ ID NO: 237]
11 | ≥ 0.7 | YCEENYLDPIQYQYFIYFK(COCH2)Y (thioether 2-19 (inferred)) [cyclic peptide SEQ ID NO: 239]
12 | ≥ 0.7 | YCEENYLDPNQYQYFIYFK(COCH2)Y (thioether 2-19 (inferred)) [cyclic peptide SEQ ID NO: 244]
13 | ≥ 0.7 | YCEENYLDPVQYQYFIYFK(COCH2)Y (thioether 2-19 (inferred)) [cyclic peptide SEQ ID NO: 240]
14 | ≥ 0.7 | YCEENYLDPHQYQYFIYFK(COCH2)Y (thioether 2-19 (inferred)) [cyclic peptide SEQ ID NO: 250]
15 | 0.1 to 0.5 | YCEENYLDPEHYQYFIYFK(COCH2)Y (thioether 2-19 (inferred)) [cyclic peptide SEQ ID NO: 251]
16 | 0.1 to 0.5 | YCEENYLDPEQIQYFIYFK(COCH2)Y (thioether 2-19 (inferred)) [cyclic peptide SEQ ID NO: 253]
17 | ≥ 0.7 | YCEENYLDPEQWQYFIYFK(COCH2)Y (thioether 2-19 (inferred)) [cyclic peptide SEQ ID NO: 255]
18 | 0.1 to 0.5 | YCEENYLRPEQYQYFIYFK(COCH2)Y (thioether 2-19 (inferred)) [cyclic peptide SEQ ID NO: 219]
19 | ≥ 0.7 | YCEENYLDPEQHQYFIYFK(COCH2)Y (thioether 2-19 (inferred)) [cyclic peptide SEQ ID NO: 256]
20 | ≥ 0.7 | YCEENYLDPLQYQYFIYFK(COCH2)Y (thioether 2-19 (inferred)) [cyclic peptide SEQ ID NO: 238]
21 | ≥ 0.7 | YCEENYLDQEQYQYFIYFK(COCH2)Y (thioether 2-19 (inferred)) [cyclic peptide SEQ ID NO: 229]

Row | ELISA luminescence signal at 10 nmol/L peptide, relative to SEQ ID NO: 47 (=1) [ratio] | Binder
22 | ≥ 0.7 | YCEENYLDDEQYQYFIYFK(COCH2)Y (thioether 2-19 (inferred)) [cyclic peptide SEQ ID NO: 232]
23 | ≥ 0.7 | YCEENYLDHEQYQYFIYFK(COCH2)Y (thioether 2-19 (inferred)) [cyclic peptide SEQ ID NO: 235]
24 | ≥ 0.7 | YCEENYLDLEQYQYFIYFK(COCH2)Y (thioether 2-19 (inferred)) [cyclic peptide SEQ ID NO: 222]
25 | ≥ 0.7 | YCEENYLDPTQYQYFIYFK(COCH2)Y (thioether 2-19 (inferred)) [cyclic peptide SEQ ID NO: 247]
26 | ≥ 0.7 | YCEENYLHPEQYQYFIYFK(COCH2)Y (thioether 2-19 (inferred)) [cyclic peptide SEQ ID NO: 220]
27 | ≥ 0.7 | YCEENYLDPRQYQYFIYFK(COCH2)Y (thioether 2-19 (inferred)) [cyclic peptide SEQ ID NO: 249]
28 | ≥ 0.7 | YCEENYLDPEQYLYFIYFK(COCH2)Y (thioether 2-19 (inferred)) [cyclic peptide SEQ ID NO: 258]
29 | ≥ 0.7 | YCEENYLDPSQYQYFIYFK(COCH2)Y (thioether 2-19 (inferred)) [cyclic peptide SEQ ID NO: 246]
30 | 0.1 to 0.5 | YCEENYLDPGQYQYFIYFK(COCH2)Y (thioether 2-19 (inferred)) [cyclic peptide SEQ ID NO: 236]
31 | ≥ 0.7 | YCEENYLDWEQYQYFIYFK(COCH2)Y (thioether 2-19 (inferred)) [cyclic peptide SEQ ID NO: 227]
32 | ≥ 0.7 | YCEENYLDPYQYQYFIYFK(COCH2)Y (thioether 2-19 (inferred)) [cyclic peptide SEQ ID NO: 242]
33 | ≥ 0.7 | YCEENYLDVEQYQYFIYFK(COCH2)Y (thioether 2-19 (inferred)) [cyclic peptide SEQ ID NO: 224]
34 | ≥ 0.7 | YCEENYLDPWQYQYFIYFK(COCH2)Y (thioether 2-19 (inferred)) [cyclic peptide SEQ ID NO: 243]
35 | ≥ 0.7 | YCEENYLDPEQFQYFIYFK(COCH2)Y (thioether 2-19 (inferred)) [cyclic peptide SEQ ID NO: 254]
36 | ≥ 0.7 | YCEENYLDREQYQYFIYFK(COCH2)Y (thioether 2-19 (inferred)) [cyclic peptide SEQ ID NO: 234]
37 | ≥ 0.7 | YCEENYLDFEQYQYFIYFK(COCH2)Y (thioether 2-19 (inferred)) [cyclic peptide SEQ ID NO: 225]
38 | ≥ 0.7 | YCEENYLDPEQYGYFIYFK(COCH2)Y (thioether 2-19 (inferred)) [cyclic peptide SEQ ID NO: 257]
39 | ≥ 0.7 | YCEENYLDSEQYQYFIYFK(COCH2)Y (thioether 2-19 (inferred)) [cyclic peptide SEQ ID NO: 230]
40 | ≥ 0.7 | YCEENYLDNEQYQYFIYFK(COCH2)Y (thioether 2-19 (inferred)) [cyclic peptide SEQ ID NO: 228]
41 | ≥ 0.7 | YCEENYLEPEQYQYFIYFK(COCH2)Y (thioether 2-19 (inferred)) [cyclic peptide SEQ ID NO: 218]
42 | ≥ 0.7 | YCEENYLDEEQYQYFIYFK(COCH2)Y (thioether 2-19 (inferred)) [cyclic peptide SEQ ID NO: 233]
